This note sets out measurements from US20120316324A1 (UCB, published 2012).

In assay [1] the target is T1, human serum albumin (human, UniProt P02768 25-609).
T1 construct: also called HSA; HumanSA
Kind of assay: SPR (Biacore 3000), construct captured by anti human CH1 antibody on CM5 chip, HSA as analyte.

In assay [2] the target is T2, hIL13 (human, UniProt P35225 35-146, limits assumed).
T2 construct: also called human IL-13
Kind of assay: SPR Biacore 3000, construct captured, 20 nM hIL13 injected.

Assay [3] addresses T2, hIL13. Kind of assay: SPR (Biacore 3000), construct captured by anti human CH1 antibody on CM5 chip, hIL13 as analyte (single concentration 20 nM).

B1: 645Fv-652Fab (L-3xG4S, H-3xG4S) (bispecific antibody, V domains shown)
VH: EVQLLESGGGLVQPGGSLRLSCAVSGIDLSNYAINWVRQAPGKGLEWIGIIWASGTTFYATWAKGRFTISRDSTTVYLQMNSLRAEDTAVYYCARTVPGYSTAPYFDLWGQGTLVTVSS
VL: DIVMTQSPSSVSASVGDRVTITCQSSPSVWSNFLSWYQQKPGKAPKLLIYEASKLTSGVPSRFKGSGSGTDFTLTISSLQPEDFATYYCGGGYSSISDTTFGGGTKVEIK
Regarding B1, the Kd was 1.22 nM in assay [1], around 0.1 nM in assay [2] and 0.126 nM in assay [3]. The results for the dissociation rate constant (koff) in assay [1] and in assay [3] were 0.000311 s⁻¹ and 0.000177 s⁻¹, respectively. Besides, the figures for the on-rate constant (kon) in assay [1] and in assay [3] were 255000 M⁻¹ s⁻¹ and 1.4e+06 M⁻¹ s⁻¹, respectively.
